Target: TGFβ1 (UniProt P01137)
Assay: cell-based or functional assay

Sequence of TGFβ1 (P01137 279-390 limits assumed): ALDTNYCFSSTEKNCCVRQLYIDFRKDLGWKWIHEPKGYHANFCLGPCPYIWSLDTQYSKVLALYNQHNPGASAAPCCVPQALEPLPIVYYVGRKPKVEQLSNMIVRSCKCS
Sequence of DNRII (truncated, dominant-negative TGFβ receptor II) (P37173 23-199): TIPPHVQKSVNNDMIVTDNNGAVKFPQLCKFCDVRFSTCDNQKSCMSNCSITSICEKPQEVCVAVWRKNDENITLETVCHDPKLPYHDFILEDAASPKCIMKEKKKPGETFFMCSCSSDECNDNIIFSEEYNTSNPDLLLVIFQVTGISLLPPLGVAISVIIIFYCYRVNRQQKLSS

T cell expansion after 30 days in culture in the presence of TGFβ1 | Total Flux of firefly-luciferase-Du145 cells (express PSCA, produce TGFβ1) after 6 days of co-culture | fold expansion of 2G.CAR-PSCA(DNRII) T cells at 2 weeks of culture in the presence of TGFβ1 | T cell expansion for >60 days in the presence of TGFβ1 | fold expansion of 2G.CAR-PSCA(RIID4) T cells at 2 weeks of culture in the presence of TGFβ1 | transgenic T cell proliferation with TGFβ1 alone (no antigen) | Substance
0.72 fold | 1e+10 p/s | 7.4 fold |  |  |  | DNRII (truncated, dominant-negative TGFβ receptor II) (from UniProt P37173 23-199)
 | 9e+09 p/s |  | 300000 fold | 21 fold | 0.04 fold | RIID4 (chimeric cytokine receptor: exodomain of TGFβRII linked to the endodomain of toll-like receptor (TLR) 4) (from UniProt P37173 23-166; O00206 632-839)
